Changes are numbered by the printed parent chain.

The values that follow come from patent US20230340128A1 (Xencor, published 2023).

The target in assay [1] is T1, human mesothelin (MSLN) (human, UniProt Q13421 296-580, limits assumed).
T1 construct: Antigen of the Octet KD values
The experiment in a line: KD of its MSLN binding domain as quoted in the text.

The target in assay [2] is T2, human CD28 (human, UniProt P10747 19-152, limits assumed).
T2 construct: also called Cluster of Differentiation 28; Tp44
The experiment in a line: KD of its CD28 binding domain as quoted in the text.

The target in assay [3] is T2, human CD28. The experiment in a line: method not stated; Monovalent CD28 KD, table headed 1A7[CD28] H1.14_L1.71 (aka 37 nM).
A further assay concerns the target T3, CD3.
T3 chain 1: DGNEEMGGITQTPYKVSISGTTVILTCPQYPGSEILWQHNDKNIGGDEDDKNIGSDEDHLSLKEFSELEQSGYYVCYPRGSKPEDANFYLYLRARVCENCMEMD
T3 chain 2: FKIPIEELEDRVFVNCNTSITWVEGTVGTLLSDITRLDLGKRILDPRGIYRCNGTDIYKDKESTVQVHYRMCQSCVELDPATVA
The experiment in a line: label in the legend box: nominal affinity of the CD3 binding domain; method not stated on the sheet.

Assay [4] concerns the target T1, human mesothelin (MSLN). Nature of the assay: KD quoted in the FIG. 25 legend; Octet (BLI) per FIGS. 20-21.
Assay [5] addresses T1, human mesothelin (MSLN). The experiment in a line: label in the legend box: nominal affinity of the MSLN binding domain (paragraph 422 calls such label values KD); method not stated on the sheet.
Assay [6] deals with T2, human CD28. The experiment in a line: label in the legend box: nominal affinity of the CD28 binding domain (paragraph 422 calls such label values KD); method not stated on the sheet.
Assay [7] deals with T1, human mesothelin (MSLN). Nature of the assay: KD quoted in the text; Octet (BLI) per FIGS. 20-21. Background: Biolayer interferometry detects binding as a change in optical thickness at a sensor tip.

B1: XENP39553 (bispecific antibody)
heavy: QVQLVQSGAEVKKPGASVKVSCKASGYTFTSYWMHWVRQAPGQGLEWMGMIHPNSDNTIYYEKFQGRVTMTVDKSISTAYMELSRLRSDDTAVYYCAIIITPVVPKFDYWGQGTLVTVSSASTKGPSVFPLAPSSKSTSGGTAALGCLVKDYFPEPVTVSWNSGALTSGVHTFPAVLQSSGLYSLSSVVTVPSSSLGTQTYICNVNHKPSDTKVDKKVEPKSCDKTHTCPPCPAPPVAGPSVFLFPPKPKDTLMISRTPEVTCVVVDVKHEDPEVKFNWYVDGVEVHNAKTKPREEEYNSTYRVVSVLTVLHQDWLNGKEYKCKVSNKALPAPIEKTISKAKGQPREPQVYTLPPSREEMTKNQVSLTCDVSGFYPSDIAVEWESDGQPENNYKTTPPVLDSDGSFFLYSKLTVDKSRWEQGDVFSCSVLHEALHSHYTQKSLSLSPGK
scFv-Fc: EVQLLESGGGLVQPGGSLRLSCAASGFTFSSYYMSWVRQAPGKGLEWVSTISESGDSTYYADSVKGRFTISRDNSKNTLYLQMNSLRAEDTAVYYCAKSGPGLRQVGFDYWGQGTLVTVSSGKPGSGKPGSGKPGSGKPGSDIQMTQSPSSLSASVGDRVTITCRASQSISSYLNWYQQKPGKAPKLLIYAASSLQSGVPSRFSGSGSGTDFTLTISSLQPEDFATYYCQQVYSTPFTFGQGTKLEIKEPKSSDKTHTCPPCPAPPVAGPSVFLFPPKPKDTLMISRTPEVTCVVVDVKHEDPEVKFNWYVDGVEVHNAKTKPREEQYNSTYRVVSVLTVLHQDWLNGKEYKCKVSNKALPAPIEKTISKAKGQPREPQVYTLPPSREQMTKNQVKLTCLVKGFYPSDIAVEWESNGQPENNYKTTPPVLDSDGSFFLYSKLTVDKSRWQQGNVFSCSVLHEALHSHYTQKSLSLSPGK
light: DIVMTQSPDSLAVSLGERATINCKASHDVGTSVAWYQQKPGQSPKLLIYWASTRHTGVPDRFTGSGSGTDFTLTISSLQAEDVAVYFCQQYSSYPLTFGAGTKLEIKRTVAAPSVFIFPPSDEQLKSGTASVVCLLNNFYPREAKVQWKVDNALQSGNSQESVTEQDSKDSTYSLSSTLTLSKADYEKHKVYACEVTHQGLSSPVTKSFNRGEC
notes: also called MSLN (0.3 nM) x CD28 (37 nM) 1+1 Fab-scFv-Fc
As usually defined, the Kd is a measure of binding affinity in units of concentration. Read a low Kd as higher affinity. Regarding B1, the figures for the Kd with human mesothelin (MSLN) [1], in the assay with human CD28 [2] and in the assay with human CD28 [3] were 0.3 nM, 37 nM and 60 nM, respectively.

B2: XENP32947 (bispecific antibody)
chain 1: B1 heavy with M50W, L430M, S436N
chain 2: QVQLVQSGAEVKKPGASVKVSCKASGYTFTSYWMHWVRQAPGQGLEWMGWIHPNSDNTIYYEKFQGRVTMTVDKSISTAYMELSRLRSDDTAVYYCAIIITPVVPKFDYWGQGTLVTVSSASTKGPSVFPLAPSSKSTSGGTAALGCLVKDYFPEPVTVSWNSGALTSGVHTFPAVLQSSGLYSLSSVVTVPSSSLGTQTYICNVNHKPSNTKVDKKVEPKSCGGGGSGGGGSQAVVTQEPSLTVSPGGTVTLTCGSSTGAVTTSNYANWVQQKPGKSPRGLIGGTNKRAPGVPARFSGSLLGGKAALTISGAQPEDEADYYCALWYSNHWVFGGGTKLTVLGKPGSGKPGSGKPGSGKPGSEVQLVESGGGLVQPGGSLRLSCAASGFTFSTYAMNWVRQAPGKGLEWVGRIRSKANNYATYYADSVKGRFTISRDDSKNTLYLQMNSLRAEDTAVYYCVRHGNFGDSYVSWFAYWGQGTLVTVSSGGGGSGGGGSKTHTCPPCPAPPVAGPSVFLFPPKPKDTLMISRTPEVTCVVVDVKHEDPEVKFNWYVDGVEVHNAKTKPREEQYNSTYRVVSVLTVLHQDWLNGKEYKCKVSNKALPAPIEKTISKAKGQPREPQVYTLPPSREQMTKNQVKLTCLVKGFYPSDIAVEWESNGQPENNYKTTPPVLDSDGSFFLYSKLTVDKSRWQQGNVFSCSVMHEALHNHYTQKSLSLSPGK
chain 3: B1 light
Regarding B2, the Kd in the assay with CD3 stood at 30 nM; with human mesothelin (MSLN) [4], 9.2 nM.

B3: XENP39569 (bispecific antibody)
heavy: B1 heavy with M50W
scFv-Fc: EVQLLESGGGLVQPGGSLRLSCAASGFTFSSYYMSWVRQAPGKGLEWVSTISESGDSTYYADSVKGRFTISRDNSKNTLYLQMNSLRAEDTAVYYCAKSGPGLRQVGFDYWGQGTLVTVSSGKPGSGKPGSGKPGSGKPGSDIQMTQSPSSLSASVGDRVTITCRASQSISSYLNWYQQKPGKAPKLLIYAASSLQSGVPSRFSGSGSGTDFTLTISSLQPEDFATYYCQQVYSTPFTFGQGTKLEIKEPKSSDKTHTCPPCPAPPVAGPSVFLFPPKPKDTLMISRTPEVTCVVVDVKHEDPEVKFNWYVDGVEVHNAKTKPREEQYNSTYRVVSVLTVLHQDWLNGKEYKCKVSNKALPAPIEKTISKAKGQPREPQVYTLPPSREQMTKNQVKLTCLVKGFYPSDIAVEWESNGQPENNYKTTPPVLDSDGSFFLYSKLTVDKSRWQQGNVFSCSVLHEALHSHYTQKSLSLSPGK
light: B1 light with T31Q
notes: also called XENP39569 MSLN (90 nM) x CD28 (37 nM) 1+1
As for B3, the values for the Kd with human mesothelin (MSLN) [5] and with human CD28 [6] were 90 nM and 37 nM, respectively.

B4: MESO-C H1_L1 (Fab, V domains shown)
VH: QVQLVQSGAEVKKPGASVKVSCKASGYTFTSYWMHWVRQAPGQGLEWMGMIHPNSDNTIYYEKFQGRVTMTVDKSISTAYMELSRLRSDDTAVYYCAIIITPVVPKFDYWGQGTLVTVSS
VL: DIVMTQSPDSLAVSLGERATINCKASHDVGTSVAWYQQKPGQSPKLLIYWASTRHTGVPDRFTGSGSGTDFTLTISSLQAEDVAVYFCQQYSSYPLTFGAGTKLEIK
In the assay with human mesothelin (MSLN) [7], B4 showed a Kd of 0.3 nM.
